Data: patent publication US20030185819A1 (Biogen, published 2003)
Numbering of substitutions follows the chain as printed. Numbers in names are those of the source. Each block holds one binder with its values, some of them ahead of it.

Key:
[1] = biological target: T1, VLA-4 (integrin alpha4 beta1) on the human B cell line Ramos (human, UniProt P13612 34-1032; P05556 21-798); assay: adhesion assay: inhibition of Ramos cell binding to immobilized rsVCAM1
T1 construct: whole, on cells; also called α4β1; VLA-4-expressing cells
T1 sequence (P13612 34-1032, chain 1 of 2): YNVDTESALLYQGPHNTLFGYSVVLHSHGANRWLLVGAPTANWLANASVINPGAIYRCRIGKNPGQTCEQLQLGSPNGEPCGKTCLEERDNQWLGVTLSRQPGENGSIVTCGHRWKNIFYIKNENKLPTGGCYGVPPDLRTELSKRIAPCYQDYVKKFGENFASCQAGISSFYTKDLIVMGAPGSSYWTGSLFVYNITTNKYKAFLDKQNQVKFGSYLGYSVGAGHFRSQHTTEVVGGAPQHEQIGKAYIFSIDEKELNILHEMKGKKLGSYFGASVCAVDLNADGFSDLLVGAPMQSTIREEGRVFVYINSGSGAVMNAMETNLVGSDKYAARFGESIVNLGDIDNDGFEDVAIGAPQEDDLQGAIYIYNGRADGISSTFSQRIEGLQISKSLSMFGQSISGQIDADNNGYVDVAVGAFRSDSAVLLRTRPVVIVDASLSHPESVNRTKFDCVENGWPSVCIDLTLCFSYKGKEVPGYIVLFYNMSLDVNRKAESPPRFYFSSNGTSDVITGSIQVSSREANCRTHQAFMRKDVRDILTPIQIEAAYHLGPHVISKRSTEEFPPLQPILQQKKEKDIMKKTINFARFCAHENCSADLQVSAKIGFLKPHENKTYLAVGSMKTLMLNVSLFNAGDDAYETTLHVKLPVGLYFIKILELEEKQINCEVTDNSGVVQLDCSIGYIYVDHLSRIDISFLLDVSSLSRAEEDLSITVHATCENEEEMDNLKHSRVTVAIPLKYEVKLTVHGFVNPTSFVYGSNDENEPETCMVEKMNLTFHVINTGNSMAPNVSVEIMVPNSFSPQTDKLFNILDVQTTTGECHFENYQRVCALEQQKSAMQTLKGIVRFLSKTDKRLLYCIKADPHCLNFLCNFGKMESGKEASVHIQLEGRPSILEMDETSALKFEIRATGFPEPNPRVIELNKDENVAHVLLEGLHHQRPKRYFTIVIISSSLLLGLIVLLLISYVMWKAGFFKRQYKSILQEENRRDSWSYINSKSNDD
T1 sequence (P05556 21-798, chain 2 of 2): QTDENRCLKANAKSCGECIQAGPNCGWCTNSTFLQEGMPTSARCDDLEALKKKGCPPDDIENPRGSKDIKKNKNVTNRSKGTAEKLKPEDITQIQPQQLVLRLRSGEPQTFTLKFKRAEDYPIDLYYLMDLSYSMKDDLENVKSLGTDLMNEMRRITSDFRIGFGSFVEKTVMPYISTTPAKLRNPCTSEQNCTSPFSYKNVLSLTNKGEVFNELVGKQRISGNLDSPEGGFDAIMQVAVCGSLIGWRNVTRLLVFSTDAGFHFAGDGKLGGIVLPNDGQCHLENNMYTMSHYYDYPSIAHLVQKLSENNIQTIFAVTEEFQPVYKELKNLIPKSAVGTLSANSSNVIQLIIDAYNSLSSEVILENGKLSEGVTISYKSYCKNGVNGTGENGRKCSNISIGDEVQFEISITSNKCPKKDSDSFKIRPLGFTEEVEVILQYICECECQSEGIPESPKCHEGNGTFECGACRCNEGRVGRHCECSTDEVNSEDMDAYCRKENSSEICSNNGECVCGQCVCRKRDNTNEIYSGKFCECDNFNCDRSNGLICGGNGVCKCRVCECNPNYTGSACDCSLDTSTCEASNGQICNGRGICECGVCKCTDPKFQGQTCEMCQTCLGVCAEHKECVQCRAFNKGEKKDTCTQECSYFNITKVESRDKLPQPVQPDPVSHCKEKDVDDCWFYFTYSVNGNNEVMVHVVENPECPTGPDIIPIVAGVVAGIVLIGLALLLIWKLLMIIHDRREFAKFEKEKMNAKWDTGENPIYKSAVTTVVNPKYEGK
Method: (§1) Recombinant soluble VCAM1 was prepared and purified essentially as described by Lobb et al., 1991a. Soluble VCAM is diluted to 10 μg/ml in 0.05 M NaHCO₃, (15 mM NaHCO₃, 35 mM Na₂CO₃) pH 9.2. Then 50 μl/well is added into a Linbro Titertek polystyrene 96 well plate, flat bottom, Flow Labs catalog #76-231-05. The plate is incubated at 4° C. overnight.
(§2) For antibody blocking studies, 100 μl/well of murine HP1/2 MAb (anti-VLA-4) typically at 10 μg/ml in RPMI, 2% FBS are added to the rsVCAM1 coated plates and incubated for 30 minutes at room temperature prior to cell binding as described above. MAb HP1/2 (anti-VLA-4) or any recombinant humanized anti-VLA-4 antibody prepared as described herein must be preincubated with labelled cells for 30 minutes at room temperature prior to the cell binding. Concentrations of the antibodies preincubated will vary, but generally concentrations were in the range of about 1 μg/ml.
(§3) The potency of recombinant Stage 0, Stage 1, Stage 2 and Stage 3 antibodies having the VK1 (DQL) light chain that had been purified from stably transfected YB2/0 cell lines was measured in the adhesion assay, as shown in Table III.

[2] = biological target: T1, VLA-4 (integrin alpha4 beta1) on the …; assay: FACS, half-maximal binding to Ramos cells
Method: (§4) Briefly, 25 μl cells (4×10^6/ml in FACS buffer (PBS 2% FBS, 0.1% NaN₃) on ice are added to 5 μl of 5 μg/ml FITC or phycoerythrin (PE) conjugated antibody in FACS buffer, and incubated in V-bottomed microtiter wells on ice for 30 minutes. To the wells, 125 μl of FACS buffer is added, the plates are centrifuged at 350×g for 5 minutes, and the supernatant is shaken off. To each well is added 125 μl FACS buffer, then the cells are transferred to 12×75 mm Falcon polystyrene tubes and resuspended to a final volume of 250 μl in FACS buffer. The mixture is analyzed on a Becton Dickinson FACStar. The results of the FACS assays as represented by the calculated half-maximal binding […] Using humanized recombinant anti-VLA-4 antibodies made according to the present invention are shown in Table III and the number (n) of experiments performed for each value is indicated for the humanized antibodies. […] Murine HP1/2 binds half-maximally to Ramos cells at 15 ng/ml. The AS/SVMDY humanized antibody binds half-maximally to Ramos cells at 12 ng/ml. Thus, the two assays (i.e., adhesion and FACS assays) show an excellent correlation for the murine antibody and the humanized AS/SVMDY antibody.

[3] = biological target: T1, VLA-4 (integrin alpha4 beta1) on the …; assay: adhesion assay: inhibition of Ramos cell binding to immobilized rsVCAM1; molar value as printed
Method: as §1, §2
(§5) In these adhesion assays, murine HP1/2 inhibits Ramos cell binding completely at about 40 ng/ml, and half maximally at about 15 ng/ml ([…]). The results of adhesion assays as represented by the calculated half-maximal binding constants using humanized recombinant anti-VLA-4 antibodies made according to the present invention are shown in Table III. The number-(n) of experiments performed for each value is indicated for the recombinant humanized antibodies.

[4] = biological target: T1, VLA-4 (integrin alpha4 beta1) on the …; assay: FACS, half-maximal binding to Ramos cells (n = 6)
Method: as §4

[5] = biological target: T1, VLA-4 (integrin alpha4 beta1) on the …; assay: adhesion assay: inhibition of Ramos cell binding to immobilized rsVCAM1 (n = 14)
Method: as §1, §2, §5

[6] = biological target: T1, VLA-4 (integrin alpha4 beta1) on the …; assay: potency assay of Example 7; which assay is not stated
[7] = biological target: T1, VLA-4 (integrin alpha4 beta1) on the …; assay: FACS, half-maximal binding to Ramos cells (n = 3)
Method: as §4

[8] = biological target: T1, VLA-4 (integrin alpha4 beta1) on the …; assay: adhesion assay: inhibition of Ramos cell binding to immobilized rsVCAM1 (n = 3)
Method: as §1, §2, §3

[9] = biological target: T1, VLA-4 (integrin alpha4 beta1) on the …; assay: adhesion assay: inhibition of Ramos cell binding to immobilized rsVCAM1 (n = 2)
Method: as §1, §2

[10] = biological target: T1, VLA-4 (integrin alpha4 beta1) on the …; assay: FACS, half-maximal binding to Ramos cells (n = 1)
Method: as §4

[11] = biological target: T1, VLA-4 (integrin alpha4 beta1) on the …; assay: combination of adhesion and FACS assays (n = 3)
Method: as §1, §2
as §4, with “Thus, the two assays (i.e., adhesion and FACS assays) show an excellent correlation for the murine antibody and the humanized AS/SVMDY antibody.” left out

[12] = biological target: T1, VLA-4 (integrin alpha4 beta1) on the …; assay: adhesion assay: inhibition of Ramos cell binding to immobilized rsVCAM1 (n = 4)
Method: as §1, §2, §3

[13] = biological target: T1, VLA-4 (integrin alpha4 beta1) on the …; assay: adhesion assay: inhibition of Ramos cell binding to immobilized rsVCAM1 (n = 6)
Method: as §1, §2, §3

[14] = biological target: T1, VLA-4 (integrin alpha4 beta1) on the …; assay: FACS, half-maximal binding to Ramos cells (n = 2)
Method: as §4

B2: Stage 2 (Ser mutant) humanized anti-VLA-4 antibody with VK1 (DQL) light chain (antibody, V domains shown)
VH: QVQLQESGPGLVRPSQTLSLTCTVSGFNIKDTYMHWVRQPPGRGLEWIGRIDPASGDTKYDPKFQVRVTMLVDTSSNQFSLRLSSVTAADTAVYYCADGMWVSTGYALDFWGQGTTVTVSS
VL: DIQLTQSPSSLSASVGDRVTITCKASQSVTNDVAWYQQKPGKAPKLLIYYASNRYTGVPSRFSGSGSGTDFTFTISSLQPEDIATYYCQQDYSSPYTFGQGTKVEIKR
notes: Human IgG1 or IgG4 / kappa; also called Sage 2 (Ser mutant); S mutant
EC50 [4]: 0.047 µg/mL
IC50 [5]: 0.056 µg/mL
fold lower potency than murine HP1/2 [6]: ~4 fold

B3: Stage 0-B humanized anti-VLA-4 antibody with VK1 (DQL) light chain (antibody, V domains shown)
VH: B2 VH with N28T, I29F, K30S, S76K
VL: DIQLTQSPSSLSASVGDRVTITCKASQSVTNDVAWYQQKPGKAPKLLIYYASNRYTGVPSRFSGSGSGTDFTFTISSLQPEDIATYYCQQDYSSPYTFGQGTKVEIK
notes: Human IgG1 or IgG4 heavy and human kappa constant regions; also called STAGE O-B; Stage 0 (Humanized heavy chain)
IC50 [1]: > 1 µg/mL

B6: Stage 3 KRS humanized anti-VLA-4 antibody with VK1 (DQL) light chain (antibody, V domains shown)
VH: B2 VH with R38K, P40R
VL: B2 VL
notes: Human IgG1 or IgG4 / kappa; also called VH-KRS
IC50 [9]: 0.05 µg/mL
EC50 [10]: 0.07 µg/mL
half-maximal binding constant (adhesion and FACS combined) [11]: 57 ng/mL

B7: STAW/SVMDY humanized anti-VLA-4 antibody (antibody, V domains shown)
VH: B2 VH with Q78T, F79A, S80W
VL: B2 VL with D1S, Q3V, L4M, S60D, S67Y
notes: Human IgG1 or IgG4 / kappa; also called STAW with VK2 (SVMDY) light chain
EC50 [7]: 0.035 µg/mL
IC50 [12]: 0.025 µg/mL

B8: Stage 1 humanized anti-VLA-4 antibody with VK1 (DQL) light chain (antibody, V domains shown)
VH: B2 VH with S76K
VL: B2 VL
notes: Purified from YB2/0 cells; also called Stage 1 (Humanized heavy chain)
IC50 [13]: 0.228 µg/mL

B9: Stage 3 KAITAS humanized anti-VLA-4 antibody with VK1 (DQL) light chain (antibody, V domains shown)
VH: B2 VH with R67K, V68A, M70I, L71T, V72A
VL: B2 VL
notes: Human IgG1 or IgG4 / kappa; also called VH-KAITAS
IC50 [9]: 0.085 µg/mL
EC50 [10]: 0.1 µg/mL
half-maximal binding constant (adhesion and FACS combined) [11]: 90 ng/mL

B11: AS/SVMDY humanized anti-VLA-4 antibody (antibody, V domains shown)
VH: B2 VH with V24A
VL: B2 VL with D1S, Q3V, L4M, S60D, S67Y
notes: Human IgG1 or IgG4 / kappa; also called AS mutant heavy chain combined with the improved light chain (SVMDY); antibody produced by ATCC CRL 11175
IC50 [9]: 0.012 µg/mL
EC50 [14]: 0.012 µg/mL

B12: Stage 3 AS humanized anti-VLA-4 antibody with VK1 (DQL) light chain (antibody, V domains shown)
VH: B2 VH with V24A
VL: B2 VL
notes: Human IgG1 or IgG4 / kappa; also called VH-AS
IC50 [9]: 0.028 µg/mL
EC50 [14]: 0.014 µg/mL

B13: Stage 0-C humanized anti-VLA-4 antibody with VK1 (DQL) light chain (antibody, V domains shown)
VH: B2 VH with N28T, I29F, K30S, S76K, D98R
VL: B3 VL
notes: Generated from Stage 0-A, which is Stage 1 with D94R; Kabat position 94 is linear position 98 of the humanized VH entries (CDR3 = 99-110); Human IgG1 or IgG4 / kappa; also called STAGE O-C; Stage 0 (Humanized heavy chain)
IC50 [1]: > 1 µg/mL

Other lines, results leading:

IC50 [1]: 0.015 µg/mL
EC50 [2]: 0.015 µg/mL
IC50 [3]: ~10 µM
B1: murine HP1/2 monoclonal antibody (antibody, mouse IgG1, V domains shown)
VH: VKLQQSGAELVKPGASVKLFCTASGFNIKDTYMHWVKQRPQQGLEWIGRIDPASGDTKYDPKFQVKATITADTSSNTAWLQLSSLTSEDTAVYYCADGMWVSTGYALDFWGQGTTVTVSS
VL: SIVMTQTPKFLLVSAGDRVTITCKASQSVTNDVAWYQQKPGQSPKLLIYYASNRYTGVPDRFTGSGYGTDFTFTISTVQAEDLAVYFCQQDYSSPYTFGGGTKLEI
notes: The first eight residues of VH and the first four of VK in the listing are dictated by the PCR primers; also called MAb HP1/2 (anti-VLA-4); HP1/2 MAb

fold lower potency than murine HP1/2 [6]: ~2.5 fold
B4: humanized heavy chain of the Stage 2 construct (the Ser mutant) with murine light chain (antibody, V domains shown)
VH: B2 VH
VL: B1 VL
notes: also called Stage 2 heavy chain / murine light chain

EC50 [7]: 0.033 µg/mL
IC50 [8]: 0.03 µg/mL
B5: Stage 3 STAW humanized anti-VLA-4 antibody with VK1 (DQL) light chain (antibody, V domains shown)
VH: B2 VH with Q78T, F79A, S80W
VL: B2 VL
notes: Human IgG1 or IgG4 / kappa; also called VH-STAW

IC50 [9]: 0.1 µg/mL
EC50 [10]: 0.04 µg/mL
half-maximal binding constant (adhesion and FACS combined) [11]: 80 ng/mL
B10: Stage 3 SSE humanized anti-VLA-4 antibody with VK1 (DQL) light chain (antibody, V domains shown)
VH: B2 VH with A88S, A89E
VL: B2 VL
notes: Human IgG1 or IgG4 / kappa; also called VH-SSE
